Reference: patent US20250368745A1 (published 2025)
Changes are numbered by the printed parent chain. Names may count otherwise.

T1: cynomolgus IL-18BP (cynomolgus monkey)
T1 construct: Generated in-house; also called cyIL-18BP; cyno IL-18BP
T1 chain: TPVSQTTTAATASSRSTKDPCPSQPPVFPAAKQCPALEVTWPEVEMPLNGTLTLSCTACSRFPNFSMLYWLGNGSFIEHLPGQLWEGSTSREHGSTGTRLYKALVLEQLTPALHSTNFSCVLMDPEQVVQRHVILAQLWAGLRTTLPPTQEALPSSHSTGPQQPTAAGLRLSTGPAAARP

T2: human IL-18BP (interleukin-18 binding protein, isoform A) (human, UniProt O95998 31-194)
T2 construct: cell assays used Sino Biological 10357-H08H; PBMC assay 1 relies on endogenous IL-18BP; UniProt number is printed as 095998; also called hIL-18BP
T2 sequence: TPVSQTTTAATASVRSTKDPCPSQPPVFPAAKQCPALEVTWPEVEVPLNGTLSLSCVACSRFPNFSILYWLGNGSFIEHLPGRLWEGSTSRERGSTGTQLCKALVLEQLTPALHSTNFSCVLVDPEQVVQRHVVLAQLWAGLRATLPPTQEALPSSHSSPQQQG

T3: human IL-18BP (human, UniProt O95998 31-194)
T3 construct: UniProt printed as 095998; also called hIL-18BP
T3 sequence: T2 sequence

T4: cynomolgus IL-18BP (cynomolgus monkey)
T4 construct: also called cyno IL-18BP; cyIL-18BP
T4 chain: T1 chain

B1: SA301a heavy chain variant N33bD, C34S (antibody, human IgG1, V domains shown)
VH: QVQLQESGPGLVKPSQTLSLTCTVSGYSITSDYDSHWIRQPPGKGLEWIGYIHYSGSTNYNPSLKSRVTISRDTSKNQFSLKLSSVTAADTAVYYCARNYGSIYVNYFDYWGQGTLVTVSS
VL: EIVLTQSPATLSLSPGERATLSCSASSSVSYMYWYQQKPGQAPRPLIYRTSNLASGIPARFSGSGSGTDFTLTISSLEPEDFAVYYCQQYHSYPTFGGGTKVEIK
notes: library variant, human IgG1/kappa, from supernatant
B2: SA301a heavy chain variant N33bE, C34S (antibody, human IgG1, V domains shown)
VH: B1 VH with D34E
VL: B1 VL
notes: as for B1
B3: SA301a heavy chain variant N33bG, C34S (antibody, human IgG1, V domains shown)
VH: B1 VH with D34G
VL: B1 VL
notes: as for B1
B4: SA301a heavy chain variant N33bK, C34S (antibody, human IgG1, V domains shown)
VH: B1 VH with D34K
VL: B1 VL
notes: as for B1
B5: SA301a heavy chain variant N33bL, C34S (antibody, human IgG1, V domains shown)
VH: B1 VH with D34L
VL: B1 VL
notes: as for B1
B6: SA301a heavy chain variant N33bM, C34S (antibody, human IgG1, V domains shown)
VH: B1 VH with D34M
VL: B1 VL
notes: as for B1
B7: SA301a heavy chain variant N33bP, C34S (antibody, human IgG1, V domains shown)
VH: B1 VH with D34P
VL: B1 VL
notes: as for B1
B8: SA301a heavy chain variant N33bQ, C34S (antibody, human IgG1, V domains shown)
VH: B1 VH with D34Q
VL: B1 VL
notes: as for B1
B9: SA301a heavy chain variant N33bS, C34S (antibody, human IgG1, V domains shown)
VH: B1 VH with D34S
VL: B1 VL
notes: as for B1
B10: SA301a heavy chain variant N33bT, C34S (antibody, human IgG1, V domains shown)
VH: B1 VH with D34T
VL: B1 VL
notes: as for B1
B11: SA301a heavy chain variant N33bV, C34S (antibody, human IgG1, V domains shown)
VH: B1 VH with D34V
VL: B1 VL
notes: as for B1
B12: SA301a heavy chain variant N33bY, C34S (antibody, human IgG1, V domains shown)
VH: B1 VH with D34Y
VL: B1 VL
notes: as for B1
B13: SA302a heavy chain variant N33bF, C34A (antibody, human IgG1, V domains shown)
VH: B1 VH with D34F, S35A
VL: B1 VL
notes: as for B1
B14: SA302a heavy chain variant N33bH, C34A (antibody, human IgG1, V domains shown)
VH: B1 VH with D34H, S35A
VL: B1 VL
notes: as for B1
B15: SA302a heavy chain variant N33bI, C34A (antibody, human IgG1, V domains shown)
VH: B1 VH with D34I, S35A
VL: B1 VL
notes: as for B1
B16: SA302a heavy chain variant N33bK, C34A (antibody, human IgG1, V domains shown)
VH: B1 VH with D34K, S35A
VL: B1 VL
notes: as for B1
B17: SA302a heavy chain variant N33bM, C34A (antibody, human IgG1, V domains shown)
VH: B1 VH with D34M, S35A
VL: B1 VL
notes: as for B1
B18: SA302a heavy chain variant N33bQ, C34A (antibody, human IgG1, V domains shown)
VH: B1 VH with D34Q, S35A
VL: B1 VL
notes: as for B1
B19: SA302a heavy chain variant N33bT, C34A (antibody, human IgG1, V domains shown)
VH: B1 VH with D34T, S35A
VL: B1 VL
notes: as for B1
B20: heavy chain library variant C34N (antibody, V domains shown)
VH: B1 VH with D34N, S35N
VL: B1 VL
notes: position 34 variant, human IgG1/kappa, from supernatant; C is the SA44a residue
B21: heavy chain library variant C34R (antibody, V domains shown)
VH: B1 VH with D34N, S35R
VL: B1 VL
B22: heavy chain library variant C34P (antibody, V domains shown)
VH: B1 VH with D34N, S35P
VL: B1 VL
B23: heavy chain library variant C34E (antibody, V domains shown)
VH: B1 VH with D34N, S35E
VL: B1 VL
B24: heavy chain library variant C34K (antibody, V domains shown)
VH: B1 VH with D34N, S35K
VL: B1 VL
B25: heavy chain library variant C34Q (antibody, V domains shown)
VH: B1 VH with D34N, S35Q
VL: B1 VL
B26: heavy chain library variant C34F (antibody, V domains shown)
VH: B1 VH with D34N, S35F
VL: B1 VL
B27: heavy chain library variant C34L (antibody, V domains shown)
VH: B1 VH with D34N, S35L
VL: B1 VL
B28: SA301a HC-Y50F (antibody, name in Kabat numbering, V domains shown)
VH: B1 VH with D34N, Y51F
VL: B1 VL
notes: IgG1 kappa
B29: SA301a HC-Y50G (antibody, name in Kabat numbering, V domains shown)
VH: B1 VH with D34N, Y51G
VL: B1 VL
notes: IgG1 kappa
B30: SA301a HC-Y50H (antibody, name in Kabat numbering, V domains shown)
VH: B1 VH with D34N, Y51H
VL: B1 VL
notes: IgG1 kappa
B31: SA301a HC-Y50I (antibody, name in Kabat numbering, V domains shown)
VH: B1 VH with D34N, Y51I
VL: B1 VL
notes: IgG1 kappa
B32: SA301a HC-Y50K (antibody, name in Kabat numbering, V domains shown)
VH: B1 VH with D34N, Y51K
VL: B1 VL
notes: IgG1 kappa
B33: SA301a HC-Y50L (antibody, name in Kabat numbering, V domains shown)
VH: B1 VH with D34N, Y51L
VL: B1 VL
notes: IgG1 kappa
B34: SA301a HC-Y50M (antibody, name in Kabat numbering, V domains shown)
VH: B1 VH with D34N, Y51M
VL: B1 VL
notes: IgG1 kappa
B35: SA301a HC-Y50P (antibody, name in Kabat numbering, V domains shown)
VH: B1 VH with D34N, Y51P
VL: B1 VL
notes: IgG1 kappa
B36: SA301a HC-Y50Q (antibody, name in Kabat numbering, V domains shown)
VH: B1 VH with D34N, Y51Q
VL: B1 VL
notes: IgG1 kappa
B37: SA301a HC-Y50R (antibody, name in Kabat numbering, V domains shown)
VH: B1 VH with D34N, Y51R
VL: B1 VL
notes: IgG1 kappa
B38: SA301a HC-Y50S (antibody, name in Kabat numbering, V domains shown)
VH: B1 VH with D34N, Y51S
VL: B1 VL
notes: IgG1 kappa
B39: SA301a HC-Y50V (antibody, name in Kabat numbering, V domains shown)
VH: B1 VH with D34N, Y51V
VL: B1 VL
notes: IgG1 kappa

Columns and labels:
cynomolgus IL-18BP [1] = target: T1, cynomolgus IL-18BP; assay: BLI single-concentration screen, apparent KD
[2] = target: T2, human IL-18BP (interleukin-18 binding …); assay: BLI single-concentration screen, apparent KD
human IL-18BP = target: T3, human IL-18BP; assay: BLI, apparent KD
cynomolgus IL-18BP [3] = target: T4, cynomolgus IL-18BP; assay: BLI, apparent KD

Row | Binder | Kd (cynomolgus IL-18BP [1]) | Kd [2] | Kd (human IL-18BP) | Kd (cynomolgus IL-18BP [3])
1 | B1 | 0.1 nM | – | – | –
2 | B2 | 0.2 nM | 0.1 nM | – | –
3 | B3 | 0.5 nM | 0.2 nM | – | –
4 | B4 | 0.9 nM | 0.4 nM | – | –
5 | B5 | 0.6 nM | 0.8 nM | – | –
6 | B6 | 1.4 nM | 1.9 nM | – | –
7 | B7 | 1.3 nM | 2.5 nM | – | –
8 | B8 | 1.1 nM | 1.9 nM | – | –
9 | B9 | 1 nM | 1.4 nM | – | –
10 | B10 | 0.4 nM | 0.3 nM | – | –
11 | B11 | 0.3 nM | 0.4 nM | – | –
12 | B12 | 0.9 nM | 1.2 nM | – | –
13 | B13 | 1.4 nM | 1.5 nM | – | –
14 | B14 | 0.6 nM | 0.8 nM | – | –
15 | B15 | 0.4 nM | 0.6 nM | – | –
16 | B16 | 0.4 nM | 0.3 nM | – | –
17 | B17 | 1 nM | 0.9 nM | – | –
18 | B18 | 1.6 nM | 1.8 nM | – | –
19 | B19 | 0.3 nM | 0.1 nM | – | –
20 | B20 | 0.6 nM | 1 nM | – | –

Row | Binder | Kd (cynomolgus IL-18BP [1]) | Kd [2] | Kd (human IL-18BP) | Kd (cynomolgus IL-18BP [3])
21 | B21 | 0.6 nM | 1.8 nM | – | –
22 | B22 | 9.8 nM | 20.6 nM | – | –
23 | B23 | 0.5 nM | 0.9 nM | – | –
24 | B24 | 0.5 nM | 1 nM | – | –
25 | B25 | 0.4 nM | 0.6 nM | – | –
26 | B26 | 0.5 nM | 0.6 nM | – | –
27 | B27 | 0.3 nM | 0.4 nM | – | –
28 | B28 | – | – | 2.18 nM | 1.81 nM
29 | B29 | – | – | 1.03 nM | 2.85 nM
30 | B30 | – | – | 1.87 nM | 3.87 nM
31 | B31 | – | – | 3.37 nM | 6.42 nM
32 | B32 | – | – | 1.08 nM | 2.43 nM
33 | B33 | – | – | 2.56 nM | 1.7 nM
34 | B34 | – | – | 2.06 nM | 1.8 nM
35 | B35 | – | – | 1.08 nM | 4.49 nM
36 | B36 | – | – | 1.13 nM | 1.12 nM
37 | B37 | – | – | 1.19 nM | 4.98 nM
38 | B38 | – | – | 2.17 nM | 2.48 nM
39 | B39 | – | – | 1.96 nM | 10.2 nM
